Measured values: US20140227251A1 (published 2014)

Biological target: Human TNF-α (R&D Systems) (human, UniProt P01375 77-233, labeled with Alexa Fluor 647 in the FACS assays)
Assay: Biacore

Chain of Human TNF-α (R&D Systems) (P01375 77-233): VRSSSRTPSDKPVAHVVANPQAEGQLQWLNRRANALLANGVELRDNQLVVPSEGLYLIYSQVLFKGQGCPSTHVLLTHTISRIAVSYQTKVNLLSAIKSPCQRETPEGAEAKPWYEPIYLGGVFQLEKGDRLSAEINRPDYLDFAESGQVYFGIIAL

Row | Kd [nM] | Binder
1 | 0.149 | D2E7 combination variant Y32K/SS-R30I (antibody, V domains shown) VH: not shown VL: DIQMTQSPSSLSASVGDRVTITCRASQSIINYLSWYQQKPGKAPKLLIYAASTLQSGVPSRFSGSGSGTDFTLTISSLQPEDVATYYCQRYNRAPYTFGQGTKVEIK
2 | 0.13 | D2E7 combination variant Y32K/SS-R30T (antibody, V domains shown) VH: not shown VL: DIQMTQSPSSLSASVGDRVTITCRASQSITNYLSWYQQKPGKAPKLLIYAASTLQSGVPSRFSGSGSGTDFTLTISSLQPEDVATYYCQRYNRAPYTFGQGTKVEIK
